Here are results for two substances from patent publication US20160130577.

Common to all, as to assay: pulldown
Holding throughout (conditions): mass spectrometry

Data set [1] addresses HNRPC (hnRNP C) (Homo sapiens) (UniProt P07910).
Data set [2] deals with HNRPU (hnRNP U) (Homo sapiens) (UniProt Q00839).
Data set [3] deals with NUCL (nucleolin) (Homo sapiens) (UniProt P19338).
Data set [4] has as its target RS3 (Homo sapiens) (UniProt P23396).
Data set [5] concerns the target RS4X (Homo sapiens) (UniProt P62701).
The target of data set [6] is hnRNPA1 (Homo sapiens) (UniProt P09651).
Data set [7] has as its target hnRNPA2B1 (Homo sapiens) (UniProt P22626).

HNRPC (hnRNP C) (Homo sapiens), sequence (P07910 2-306): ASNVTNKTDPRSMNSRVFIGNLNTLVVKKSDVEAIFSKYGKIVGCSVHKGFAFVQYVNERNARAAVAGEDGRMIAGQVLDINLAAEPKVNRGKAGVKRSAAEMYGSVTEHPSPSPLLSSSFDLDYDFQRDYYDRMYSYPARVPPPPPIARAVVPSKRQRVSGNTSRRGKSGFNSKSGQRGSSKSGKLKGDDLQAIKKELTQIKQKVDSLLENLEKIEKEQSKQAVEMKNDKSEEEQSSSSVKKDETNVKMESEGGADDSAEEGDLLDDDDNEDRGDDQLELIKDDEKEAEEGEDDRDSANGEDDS
hnRNPA1 (Homo sapiens), sequence (P09651 2-372): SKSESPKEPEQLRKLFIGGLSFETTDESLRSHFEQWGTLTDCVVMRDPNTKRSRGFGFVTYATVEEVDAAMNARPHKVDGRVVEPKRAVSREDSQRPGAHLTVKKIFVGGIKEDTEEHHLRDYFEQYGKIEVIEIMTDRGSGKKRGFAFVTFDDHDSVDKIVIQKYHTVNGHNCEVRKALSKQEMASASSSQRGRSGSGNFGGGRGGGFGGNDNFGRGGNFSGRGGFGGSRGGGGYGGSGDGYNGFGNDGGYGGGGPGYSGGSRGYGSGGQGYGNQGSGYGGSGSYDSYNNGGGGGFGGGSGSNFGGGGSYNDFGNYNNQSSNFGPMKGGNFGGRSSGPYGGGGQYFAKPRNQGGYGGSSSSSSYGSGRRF
hnRNPA2B1 (Homo sapiens), sequence (P22626 whole entry): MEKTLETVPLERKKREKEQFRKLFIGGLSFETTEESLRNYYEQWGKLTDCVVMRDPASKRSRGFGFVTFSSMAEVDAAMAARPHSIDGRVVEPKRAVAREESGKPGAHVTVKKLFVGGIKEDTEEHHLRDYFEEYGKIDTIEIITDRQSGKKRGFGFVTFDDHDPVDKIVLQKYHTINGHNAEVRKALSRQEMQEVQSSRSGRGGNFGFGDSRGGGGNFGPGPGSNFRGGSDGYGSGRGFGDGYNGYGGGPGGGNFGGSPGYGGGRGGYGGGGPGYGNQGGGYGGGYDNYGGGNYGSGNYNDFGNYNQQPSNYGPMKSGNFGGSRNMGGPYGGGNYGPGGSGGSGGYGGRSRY
NUCL (nucleolin) (Homo sapiens), sequence (P19338 2-710): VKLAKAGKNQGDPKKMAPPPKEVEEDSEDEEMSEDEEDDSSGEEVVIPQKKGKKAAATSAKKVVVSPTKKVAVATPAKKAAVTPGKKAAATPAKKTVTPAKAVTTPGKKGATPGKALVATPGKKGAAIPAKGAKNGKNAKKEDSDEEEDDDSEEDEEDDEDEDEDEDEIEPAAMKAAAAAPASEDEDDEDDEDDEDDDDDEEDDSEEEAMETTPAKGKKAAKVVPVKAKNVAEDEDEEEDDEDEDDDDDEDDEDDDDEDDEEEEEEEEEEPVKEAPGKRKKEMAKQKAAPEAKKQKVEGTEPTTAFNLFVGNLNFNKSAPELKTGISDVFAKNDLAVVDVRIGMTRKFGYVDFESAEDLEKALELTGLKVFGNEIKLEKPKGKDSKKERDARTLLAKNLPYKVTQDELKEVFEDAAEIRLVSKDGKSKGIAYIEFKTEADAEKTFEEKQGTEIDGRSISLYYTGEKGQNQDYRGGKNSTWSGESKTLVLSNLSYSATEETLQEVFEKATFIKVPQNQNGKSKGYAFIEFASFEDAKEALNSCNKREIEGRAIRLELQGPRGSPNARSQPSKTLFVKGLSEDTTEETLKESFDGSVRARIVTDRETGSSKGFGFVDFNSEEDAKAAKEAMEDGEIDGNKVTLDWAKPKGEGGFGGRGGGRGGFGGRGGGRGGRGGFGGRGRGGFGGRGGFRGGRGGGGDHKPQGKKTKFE
HNRPU (hnRNP U) (Homo sapiens), sequence (Q00839 2-825): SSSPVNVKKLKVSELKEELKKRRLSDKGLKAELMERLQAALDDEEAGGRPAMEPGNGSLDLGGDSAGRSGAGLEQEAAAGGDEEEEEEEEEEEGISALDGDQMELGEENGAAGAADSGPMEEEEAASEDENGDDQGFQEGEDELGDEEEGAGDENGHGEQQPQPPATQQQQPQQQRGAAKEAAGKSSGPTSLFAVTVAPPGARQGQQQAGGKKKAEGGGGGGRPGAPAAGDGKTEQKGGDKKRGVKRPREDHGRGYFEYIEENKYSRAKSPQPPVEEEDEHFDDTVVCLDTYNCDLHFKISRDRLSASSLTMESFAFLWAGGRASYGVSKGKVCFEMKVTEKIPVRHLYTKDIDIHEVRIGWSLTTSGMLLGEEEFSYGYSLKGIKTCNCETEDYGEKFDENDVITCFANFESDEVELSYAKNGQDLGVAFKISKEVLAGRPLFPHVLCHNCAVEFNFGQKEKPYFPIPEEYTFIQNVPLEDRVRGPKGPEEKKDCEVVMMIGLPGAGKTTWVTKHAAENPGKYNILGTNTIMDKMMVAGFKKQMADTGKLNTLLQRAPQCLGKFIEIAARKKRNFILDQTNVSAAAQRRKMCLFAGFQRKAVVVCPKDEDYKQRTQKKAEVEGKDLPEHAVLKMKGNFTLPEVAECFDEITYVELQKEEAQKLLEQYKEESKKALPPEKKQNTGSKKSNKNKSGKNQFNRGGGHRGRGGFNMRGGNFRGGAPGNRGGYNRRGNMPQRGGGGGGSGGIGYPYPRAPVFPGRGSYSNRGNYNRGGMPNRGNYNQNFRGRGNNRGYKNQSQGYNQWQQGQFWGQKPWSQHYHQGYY

Turning to miR-198, the binding in data set [1] was 1 peptides; in data set [2], 3 peptides; in data set [3], 9 peptides; in data set [4] it was 3 peptides; in data set [5] it was 3 peptides; in data set [6] it was 2 peptides. This substance also showed a binding in data set [7] (streptavidin bead pulldown) of 4 peptides.
poly-A: the binding in data set [1] turned out to be 0 peptides; in data set [2], 0 peptides; in data set [3] (non-specific) it was 8 peptides; in data set [4] it was 0 peptides; in data set [5], 0 peptides; in data set [6] it was 0 peptides. Besides, the binding in data set [7] came to 0 peptides.
